Each block holds one substance with its values, some of them ahead of it.
Legend:
[1] = biological target: SCOC aa 11–25 LIR peptide (human); test: BLI; biotinylated LIR peptide immobilized on streptavidin biosensor, ATG8 in solution; 25 mM Tris pH 7.5, 150 mM NaCl, 0.5 mM TCEP, 0.1% Tween20, 1 mg/ml BSA; 25 °C; Kd from response against concentration
[2] = biological target: SCOC aa 6–18 LIR peptide (human); test: as above
[3] = biological target: SCOC pS12 LIR peptide (human); test: as above
[4] = biological target: SCOC LIR peptide phosphorylated at S12 and S18 (BLI) (human); test: as above
[5] = biological target: GABARAP (UniProt O95166); test: bio-layer interferometry, immobilised biotin peptide; conditions: reference: unphosphorylated WT peptide
[6] = biological target: GABARAPL1 (UniProt Q9H0R8); test: as above; conditions: reference: unphosphorylated WT peptide
[7] = biological target: GABARAPL2 (UniProt P60520); test: as above; conditions: reference: unphosphorylated WT peptide
[8] = biological target: LC3A (UniProt Q9H492); test: as above; conditions: reference: unphosphorylated WT peptide
[9] = biological target: LC3B (UniProt Q9GZQ8); test: as above; conditions: reference: unphosphorylated WT peptide
[10] = biological target: LC3C (UniProt Q9BXW4); test: as above; conditions: reference: unphosphorylated WT peptide
Sequence of LC3C (Q9BXW4 whole entry, looked up): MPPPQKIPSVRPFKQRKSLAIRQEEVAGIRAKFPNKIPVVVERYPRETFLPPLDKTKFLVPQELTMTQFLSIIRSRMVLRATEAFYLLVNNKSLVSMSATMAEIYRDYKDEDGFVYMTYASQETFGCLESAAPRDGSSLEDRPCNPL

Sequence of GABARAPL1 (for BLI) (Q9H0R8 whole entry): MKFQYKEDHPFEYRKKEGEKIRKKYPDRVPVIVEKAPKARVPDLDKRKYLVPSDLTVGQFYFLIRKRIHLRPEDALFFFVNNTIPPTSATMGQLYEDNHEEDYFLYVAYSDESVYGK
Sequence of GABARAPL1 (Q9H0R8 whole entry, looked up): as the sequence (Q9H0R8 whole entry) above
Sequence of GABARAPL2 (P60520 whole entry, looked up): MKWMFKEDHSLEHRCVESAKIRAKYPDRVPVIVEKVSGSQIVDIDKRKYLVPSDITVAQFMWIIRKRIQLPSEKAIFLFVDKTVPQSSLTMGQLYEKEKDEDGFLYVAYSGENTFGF
Sequence of GABARAP (O95166 whole entry, looked up): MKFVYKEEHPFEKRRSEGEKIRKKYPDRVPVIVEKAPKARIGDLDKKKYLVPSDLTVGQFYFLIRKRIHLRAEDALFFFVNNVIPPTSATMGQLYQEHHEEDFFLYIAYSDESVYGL
Sequence of SCOC pS12 LIR peptide (human) (peptide, as listed by the source): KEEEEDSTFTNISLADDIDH
Sequence of LC3C (for BLI) (Q9BXW4 1-126): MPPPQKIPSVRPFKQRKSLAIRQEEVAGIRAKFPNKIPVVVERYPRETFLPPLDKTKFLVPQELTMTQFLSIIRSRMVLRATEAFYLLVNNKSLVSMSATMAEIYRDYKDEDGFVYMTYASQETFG

Substance: GABARAPL1 (for BLI) (from UniProt Q9H0R8 1-117) (natural protein)
fold decrease in affinity against SCOC WT LIR peptide [1]: 104 fold
fold decrease in affinity against SCOC WT LIR peptide [2]: 4 fold
fold increase in affinity over SCOC WT LIR peptide [3]: 2 fold

Substance: LC3C (for BLI) (from UniProt Q9BXW4 1-126) (natural protein)
fold increase in affinity over SCOC WT LIR peptide [4]: 21 fold

Substance: SCOC (isoform 3) LIR domain, 6-25 (from UniProt Q9UIL1-2) pS18 peptide
fold change ([5]; sites S18): same
fold change ([6]; sites S18): same
fold change ([7]; sites S18): same
fold change ([8]; sites S18): stronger
fold change ([9]; sites S18): stronger
fold change ([10]; sites S18): stronger

Substance: SCOC (isoform 3) LIR domain, 6-25 (from UniProt Q9UIL1-2) pT13 peptide
binding against the reference ([5]; sites T13): same
binding against the reference ([6]; sites T13): same
binding against the reference ([7]; sites T13): same
binding against the reference ([9]; sites T13): same
binding against the reference ([10]; sites T13): same

Results, then the substance that gave them:

fold increase in affinity over SCOC WT LIR peptide [4]: 17 fold
Substance: LC3A (for BLI) (from UniProt Q9H492 1-121) (natural protein)

fold change ([5]; sites S12): stronger
fold change ([6]; sites S12): stronger
fold change ([7]; sites S12): stronger
fold change ([8]; sites S12): stronger
fold change ([9]; sites S12): stronger
fold change ([10]; sites S12): stronger
Substance: SCOC (isoform 3) LIR domain, 6-25 (from UniProt Q9UIL1-2) pS12 peptide

fold change ([5]; sites S12,S18): stronger
fold change ([6]; sites S12,S18): stronger
fold change ([7]; sites S12,S18): stronger
fold change ([8]; sites S12,S18): stronger
fold change ([9]; sites S12,S18): stronger
fold change ([10]; sites S12,S18): stronger
Substance: SCOC (isoform 3) LIR domain, 6-25 (from UniProt Q9UIL1-2) pS12/pS18 peptide

fold change ([5]; sites S12,T15): stronger
fold change ([6]; sites S12,T15): stronger
fold change ([7]; sites S12,T15): stronger
fold change ([8]; sites S12,T15): stronger
fold change ([9]; sites S12,T15): stronger
fold change ([10]; sites S12,T15): stronger
Substance: SCOC (isoform 3) LIR domain, 6-25 (from UniProt Q9UIL1-2) pS12/pT15 peptide

fold change ([5]; sites T15): same
fold change ([6]; sites T15): same
fold change ([7]; sites T15): same
fold change ([8]; sites T15): stronger
fold change ([9]; sites T15): stronger
fold change ([10]; sites T15): stronger
Substance: SCOC (isoform 3) LIR domain, 6-25 (from UniProt Q9UIL1-2) pT15 peptide
